B1: E3 ubiquitin-protein ligase CHIP (Mus musculus), Q9WUD1 (parent)
chain: MKGKEEKEGGARLGTGGGGSPDKSPSAQELKEQGNRLFVGRKYPEAAACYGRAITRNPLVAVYYTNRALCYLKMQQPEQALADCRRALELDGQSVKAHFFLGQCQLEMESYDEAIANLQRAYSLAKEQRLNFGDDIPSALRIAKKKRWNSIEERRIHQESELHSYLTRLIAAERERELEECQRNHEGHEDDGHIRAQQACIEAKHDKYMADMDELFSQVDEKRKKRDIPDYLCGKISFELMREPCITPSGITYDRKDIEEHLQRVGHFDPVTRSPLTQEQLIPNLAMKEVIDAFISENGWVEDY
partner: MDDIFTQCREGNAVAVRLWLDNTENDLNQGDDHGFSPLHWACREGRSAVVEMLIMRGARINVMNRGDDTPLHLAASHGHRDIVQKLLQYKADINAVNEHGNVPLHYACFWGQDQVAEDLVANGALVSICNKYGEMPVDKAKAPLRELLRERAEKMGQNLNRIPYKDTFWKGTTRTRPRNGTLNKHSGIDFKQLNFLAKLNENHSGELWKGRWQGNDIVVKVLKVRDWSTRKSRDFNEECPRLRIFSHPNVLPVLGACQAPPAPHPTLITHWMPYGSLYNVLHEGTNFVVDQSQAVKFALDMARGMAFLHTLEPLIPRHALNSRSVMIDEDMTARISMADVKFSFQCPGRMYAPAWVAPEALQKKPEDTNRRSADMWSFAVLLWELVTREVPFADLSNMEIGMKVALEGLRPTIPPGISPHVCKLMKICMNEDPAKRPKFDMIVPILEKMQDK

In this experiment the parent is B1. To be noted: with ilk_mouse Ilk.
On to K31A, for which the “effect of a mutation on the interaction” value was “decreasing interaction”.

Source of the values: IntAct's records for PubMed 23612611.
